Results as given in paper PMC8763920, “Unprotected peptide macrocyclization and stapling via a fluorine-thiol displacement reaction” (Nature Communications, 2022).
*1 amine or outer side, *2 acyl side, *3 side chain or, on linkers, in order; H or OH if unused. Where a SMILES comes first, the peptide text is derived from it. Bridges are numbered along the chain shown (N, C = ends). [ ]: non-standard residue; d: D form. X3 = O=C(CSCCCCCCCCSCC(=O)[*:2])[*:1]; X2 = O=C(CSCCCCCCCSCC(=O)[*:2])[*:1]; S5 = C=CCCC[C@](C)(N)C(=O)O; dDap = NC[C@@H](N)C(=O)O; Dap = NC[C@H](N)C(=O)O

Tests used:
[1] = system: DLD-1 cells; assay: 5-day growth inhibition of DLD-1 cancer cells; type: cell-based; conditions: CellTiter Glo
Experimental: (§1) For growth inhibition by Axin peptides, DLD-1 cells were cultured and maintained as mentioned before. Right before the assay, cells were resuspended in fresh RPMI media supplemented with 10% FBS, 100 IU/mL penicillin, and 100 µg/mL streptomycin, and plated onto 96-well white flat-bottom plates at 1000 cells per well (90 µL media/well). After overnight incubation, peptide samples were serially diluted as 10× stock in PBS buffer (10% DMSO), and were added to the plated cells at 10 µL stock solution/well in triplicate to make final treatment concentrations of 0, 0.0625, 0.125, 0.25, 0.5, 1, 2, 4, 8, 16 µM. The wells on the edges of plates were filled with PBS buffer to avoid unwanted evaporation of samples. The samples on the plates were incubated at 37 °C, 5% CO2 for 5 days, and the cell viability was evaluated by CellTiter Glo (Promega). The luminescence signals were recorded by the H1 synergy plate reader (Biotek) using the Gen5 software, and were normalized against the control groups (100%) for which cells were only treated with the vehicle (PBS/1% DMSO). Control HEK293 cells were cultured in DMEM media supplemented with 10% FBS, 1% penicillin/streptomycin at 37 °C, 5% CO2, then incubated with peptide samples and measured for viability in the same manner as mentioned above. For Axin peptide analogues’ time-dependent cytotoxicity, peptide analogues were mixed with cells (1000 cells per well) at a final concentration of 0, 5, 10, and 15 µM. The cell viabilities were meaured via CellTiter Glo after incubation of 1 day, 2 days, and 4 days, respectively. […] After 24 h of incubation, the cell viabilities were measured and normalized against the vehicle control groups the same as mentioned above.

[2] = system: DLD-1 cells; assay: Time-dependent cytotoxicity/growth inhibition of Axin peptide analogues; type: cell-based; conditions: 0, 5, 10, 15 µM; after 48 h of incubation; CellTiter Glo
Experimental: as §1, with “The wells on the edges of plates were filled with PBS buffer to avoid unwanted evaporation of samples.” left out, “above.” for “above. For Axin peptide analogues’ time-dependent cytotoxicity, peptide analogues were mixed with cells (1000 cells per well) at a final concentration of 0, 5, 10, and 15 µM. The cell viabilities were meaured via CellTiter Glo after incubation of 1 day, 2 days, and 4 days, respectively.”

[3] = system: HEK293 cells; assay: 5-day growth of HEK293 control cells; type: cell-based; conditions: 5 days, CellTiter Glo, up to 16 µM
Experimental: as §1, with “The wells on the edges of plates were filled with PBS buffer to avoid unwanted evaporation of samples.” left out, “above.” for “above. For Axin peptide analogues’ time-dependent cytotoxicity, peptide analogues were mixed with cells (1000 cells per well) at a final concentration of 0, 5, 10, and 15 µM. The cell viabilities were meaured via CellTiter Glo after incubation of 1 day, 2 days, and 4 days, respectively.”

[4] = system: DLD-1 cells; assay: Cell viability assay for imaging studies, Axin analogues; type: cell-based; conditions: 10 µM, 12 h incubation, CellTiter-Glo
Experimental: For Jurkat cells, after imaging studies with SAHBA analogues (5 µM, 4 h of incubation), viabilities were measured by mixing with the CellTiter-Glo reagent and the chemiluminescence signals were recorded and processed the same as metioned above. Similarly, confocal imaging of DLD-1 cells for the penetration pathway studies were followed by viability measurements. Cells treated with vehicle groups were also analysed and counted as the 100% control.

[5] = system: β-catenin mediated transcription; assay: TOPFlash luciferase reporter assay; type: cell-based; conditions: DLD-1 cells, 15 μM peptide, 24 h
Experimental: For evaluation of Axin peptide analogues, DLD-1 cells were cultured in 96-well flat bottom plates up to 70–80% confluency and were transfected with 200 ng M50 TOPFlash plasmid (a gift from Professor Raymond Habas, Temple Biology) and 50 ng pRL-TK plasmid (Promega). 12 h after transfection, cells were treated with DMSO vehicle or 15 μM of Axin peptide analogues for another 24 h. Luciferase activity was measured using the Dual-Glo luciferase assay kit (Promega) on a Biotek Synergy H1 plate reader using the Gen5 software. Data were processed as firefly: Renilla luciferase ratio for each control or treatment group, and were further normalized against the vehicle control group (100%) as the Relative Activities.

[6] = circular dichroism; conditions: water; pH ns; 25 °C; 70 uM

SMILES: CC[C@H](C)[C@@H]1NC(=O)[C@@H](NC(=O)[C@H](CCC(N)=O)NC(=O)[C@@H]2CCCN2C(=O)[C@H](Cc2c[nH]c3ccccc23)NC(=O)[C@H](CCCNC(=N)N)NC(=O)COCCOCCNC(=S)Nc2ccc3c(c2)C(=O)OC32c3ccc(O)cc3Oc3cc(O)ccc32)CNC(=O)CSCc2cccc(c2)CSCC(=O)NC[C@@H](C(=O)N[C@@H](Cc2c[nH]cn2)C(=O)N[C@H](C(=O)N[C@@H](CCCNC(=N)N)C(=O)N[C@@H](CCCNC(=N)N)C(=O)N[C@H](C(=O)N[C@@H](Cc2c[nH]c3ccccc23)C(=O)N[C@@H](CCCNC(=N)N)C(N)=O)C(C)C)C(C)C)NC(=O)[C@H](CC(=O)O)NC(=O)[C@H](CC(C)C)NC1=O [compound 65]
- EC50 ([1]; 5 days, 1000 cells per well, n = 3, read-out: EC50, inhibition of DLD-1 cell growth): 2300 ± 400 nM
- effects on DLD-1 cells over a time course of 24–96 h [2]: significant effects
- effect on growth of HEK293 control cells [3]: little effects
- effect on viability of DLD-1 cells [4]: did not affect the viability
- inhibition of β-catenin mediated transcription (TOPFlash) [5]: strong inhibition

SMILES: CC[C@H](C)[C@@H]1NC(=O)[C@@](C)(NC(=O)[C@H](CCC(=O)O)NC(=O)[C@@H]2CCCN2C(=O)[C@H](CC(N)=O)NC(=O)[C@H](CCC(=O)O)NC(C)=O)CCCC=CCCC[C@@](C)(C(=O)N[C@@H](Cc2c[nH]cn2)C(=O)N[C@H](C(=O)N[C@@H](CCC(N)=O)C(=O)N[C@@H](CCCNC(=N)N)C(=O)N[C@H](C(=O)N[C@@H](CCSC)C(N)=O)C(C)C)C(C)C)NC(=O)[C@H](CC(=O)O)NC(=O)[C@H](CC(C)C)NC1=O (Ac-ENPE[S5]ILD[S5]HVQRVM-NH2; staple 5-9)
- helicity [6]: 48%

SMILES: CC(=O)N[C@@H](CCC(N)=O)C(=O)N[C@@H](CO)C(=O)N[C@@H](CCC(N)=O)C(=O)N[C@@H](CCC(N)=O)C(=O)N[C@H](C(=O)N[C@@H](Cc1ccccc1)C(=O)N[C@H]1CNC(=O)CSCCCCCCCSCC(=O)NC[C@@H](C(=O)N[C@@H](CCC(N)=O)C(=O)N[C@@H](CC(N)=O)C(N)=O)NC(=O)[C@H](CC(C)C)NC(=O)[C@H](CC(C)C)NC(=O)[C@H](CCCNC(=N)N)NC(=O)[C@H](Cc2c[nH]c3ccccc23)NC(=O)[C@H](CC(C)C)NC(=O)[C@H](CC(N)=O)NC1=O)[C@@H](C)O
- helicity [6]: 36%

SMILES: CC[C@H](C)[C@@H]1NC(=O)[C@@H](NC(=O)[C@H](CCC(=O)O)NC(=O)[C@@H]2CCCN2C(=O)[C@H](CC(N)=O)NC(=O)[C@H](CCC(=O)O)NC(C)=O)CNC(=O)CSCCCCCCCCSCC(=O)NC[C@@H](C(=O)N[C@@H](Cc2c[nH]cn2)C(=O)N[C@H](C(=O)N[C@@H](CCC(N)=O)C(=O)N[C@@H](CCCNC(=N)N)C(=O)N[C@H](C(=O)N[C@@H](CCSC)C(N)=O)C(C)C)C(C)C)NC(=O)[C@H](CC(=O)O)NC(=O)[C@H](CC(C)C)NC1=O (Ac-ENPE[Dap]ILD[Dap]HVQRVM-NH2; linker 5-9 via X3)
- helicity [6]: 25%

SMILES: CC[C@H](C)[C@@H]1NC(=O)[C@H](NC(=O)[C@H](CCC(=O)O)NC(=O)[C@@H]2CCCN2C(=O)[C@H](CC(N)=O)NC(=O)[C@H](CCC(=O)O)NC(C)=O)CNC(=O)CSCc2cccc(c2)CSCC(=O)NC[C@@H](C(=O)N[C@@H](Cc2c[nH]cn2)C(=O)N[C@H](C(=O)N[C@@H](CCC(N)=O)C(=O)N[C@@H](CCCNC(=N)N)C(=O)N[C@H](C(=O)N[C@@H](CCSC)C(N)=O)C(C)C)C(C)C)NC(=O)[C@H](CC(=O)O)NC(=O)[C@H](CC(C)C)NC1=O
- helicity [6]: 8%

SMILES: CC(=O)N[C@@H](CCC(N)=O)C(=O)N[C@@H](CO)C(=O)N[C@@H](CCC(N)=O)C(=O)N[C@@H](CCC(N)=O)C(=O)N[C@H](C(=O)N[C@@H](Cc1ccccc1)C(=O)N[C@H]1CNC(=O)CSCCCCCCCCSCC(=O)NC[C@@H](C(=O)N[C@@H](CCC(N)=O)C(=O)N[C@@H](CC(N)=O)C(N)=O)NC(=O)[C@H](CC(C)C)NC(=O)[C@H](CC(C)C)NC(=O)[C@H](CCCNC(=N)N)NC(=O)[C@H](Cc2c[nH]c3ccccc23)NC(=O)[C@H](CC(C)C)NC(=O)[C@H](CC(N)=O)NC1=O)[C@@H](C)O
- helicity [6]: 42%

SMILES: CC[C@H](C)[C@@H]1NC(=O)[C@@H](NC(=O)[C@H](CCC(=O)O)NC(=O)[C@@H]2CCCN2C(=O)[C@H](CC(N)=O)NC(=O)[C@H](CCC(=O)O)NC(C)=O)CNC(=O)CSCc2ccc(cc2)CSCC(=O)NC[C@@H](C(=O)N[C@@H](Cc2c[nH]cn2)C(=O)N[C@H](C(=O)N[C@@H](CCC(N)=O)C(=O)N[C@@H](CCCNC(=N)N)C(=O)N[C@H](C(=O)N[C@@H](CCSC)C(N)=O)C(C)C)C(C)C)NC(=O)[C@H](CC(=O)O)NC(=O)[C@H](CC(C)C)NC1=O
- helicity [6]: 17%

SMILES: CC[C@H](C)[C@@H]1NC(=O)[C@H](NC(=O)[C@H](CCC(=O)O)NC(=O)[C@@H]2CCCN2C(=O)[C@H](CC(N)=O)NC(=O)[C@H](CCC(=O)O)NC(C)=O)CNC(=O)CSCCCCCCCSCC(=O)NC[C@@H](C(=O)N[C@@H](Cc2c[nH]cn2)C(=O)N[C@H](C(=O)N[C@@H](CCC(N)=O)C(=O)N[C@@H](CCCNC(=N)N)C(=O)N[C@H](C(=O)N[C@@H](CCSC)C(N)=O)C(C)C)C(C)C)NC(=O)[C@H](CC(=O)O)NC(=O)[C@H](CC(C)C)NC1=O (Ac-ENPE[dDap]ILD[Dap]HVQRVM-NH2; linker 5-9 via X2)
- helicity [6]: 19%

SMILES: CC(=O)N[C@@H](CCC(N)=O)C(=O)N[C@@H](CO)C(=O)N[C@@H](CCC(N)=O)C(=O)N[C@@H](CCC(N)=O)C(=O)N[C@H](C(=O)N[C@@H](Cc1ccccc1)C(=O)N[C@H]1CNC(=O)CSCCCCCCCCSCC(=O)NC[C@H](C(=O)N[C@@H](CCC(N)=O)C(=O)N[C@@H](CC(N)=O)C(N)=O)NC(=O)[C@H](CC(C)C)NC(=O)[C@H](CC(C)C)NC(=O)[C@H](CCCNC(=N)N)NC(=O)[C@H](Cc2c[nH]c3ccccc23)NC(=O)[C@H](CC(C)C)NC(=O)[C@H](CC(N)=O)NC1=O)[C@@H](C)O
- helicity [6]: 37%

SMILES: CC[C@H](C)[C@@H]1NC(=O)[C@@](C)(NC(=O)[C@H](CCC(N)=O)NC(=O)[C@@H]2CCCN2C(=O)[C@H](Cc2c[nH]c3ccccc23)NC(=O)[C@H](CCCNC(=N)N)NC(=O)COCCOCCNC(=S)Nc2ccc3c(c2)C(=O)OC32c3ccc(O)cc3Oc3cc(O)ccc32)CCC/C=C\CCC[C@@](C)(C(=O)N[C@@H](Cc2c[nH]cn2)C(=O)N[C@H](C(=O)N[C@@H](CCCNC(=N)N)C(=O)N[C@@H](CCCNC(=N)N)C(=O)N[C@H](C(=O)N[C@@H](Cc2c[nH]c3ccccc23)C(=O)N[C@@H](CCCNC(=N)N)C(N)=O)C(C)C)C(C)C)NC(=O)[C@H](CC(=O)O)NC(=O)[C@H](CC(C)C)NC1=O [compound 68, reference compound]
- concentration at which significant growth inhibition was first displayed ([1]; DLD-1, 5 days, highest tested 16 µM): 16 µM

SMILES: CC[C@H](C)[C@@H]1NC(=O)[C@H](NC(=O)[C@H](CCC(=O)O)NC(=O)[C@@H]2CCCN2C(=O)[C@H](CC(N)=O)NC(=O)[C@H](CCC(=O)O)NC(C)=O)CNC(=O)CSCCCCCCCCSCC(=O)NC[C@@H](C(=O)N[C@@H](Cc2c[nH]cn2)C(=O)N[C@H](C(=O)N[C@@H](CCC(N)=O)C(=O)N[C@@H](CCCNC(=N)N)C(=O)N[C@H](C(=O)N[C@@H](CCSC)C(N)=O)C(C)C)C(C)C)NC(=O)[C@H](CC(=O)O)NC(=O)[C@H](CC(C)C)NC1=O (Ac-ENPE[dDap]ILD[Dap]HVQRVM-NH2; linker 5-9 via X3)
- helicity [6]: 5%

SMILES: CC(=O)N[C@@H](CCC(N)=O)C(=O)N[C@@H](CO)C(=O)N[C@@H](CCC(N)=O)C(=O)N[C@@H](CCC(N)=O)C(=O)N[C@H](C(=O)N[C@@H](Cc1ccccc1)C(=O)N[C@H]1CNC(=O)CSCCCCCCCSCC(=O)NC[C@H](C(=O)N[C@@H](CCC(N)=O)C(=O)N[C@@H](CC(N)=O)C(N)=O)NC(=O)[C@H](CC(C)C)NC(=O)[C@H](CC(C)C)NC(=O)[C@H](CCCNC(=N)N)NC(=O)[C@H](Cc2c[nH]c3ccccc23)NC(=O)[C@H](CC(C)C)NC(=O)[C@H](CC(N)=O)NC1=O)[C@@H](C)O
- helicity [6]: 40%
